For 39 variants, self-cleavage results are on record in the RNAGym collection of RNA variant scans (doi:10.7554/elife.80360).

B1: CPEB3 Ribozyme (parent)
chain: GGGGGCCACAGCAGAAGCGUUCACGUCGCGGCCCCUGUCAGAUUCUGGUGAAUCUGCGAAUUCUGCUGU

This data set covers variants of B1. Briefly: self-cleavage, relative activity (ratio to wild type); higher = more cleavage; co-transcriptional.
For the variant GGGGGCCACAGCAGAAGCGUUCUCGUCGCGGCCCCUGGCAGAUUCUGGUGAAUCUGCGAAUUCUGCUGU [A23U U38G], the self-cleavage was 0.206.

Take GGGGGCCACAGCAGAAGCGUUCUCGUCGCGGCCCCUGCCAGAUUCUGGUGAAUCUGCGAAUUCUGCUGU [A23U U38C]: the self-cleavage came to 0.96. The result for GGGGGCCACAGCAGAAGCGUUCUCGUCGCGGCCCCUGACAGAUUCUGGUGAAUCUGCGAAUUCUGCUGU [A23U U38A] reads 0.95. GGGGGCCACAGCAGAAGCGUUCUCGUCGCGGCCCCUGUCAGAUUCUGCUGAAUCUGCGAAUUCUGCUGU [A23U G48C]: the self-cleavage worked out at 1.06. GGGGGCCACAGCAGAAGCGUUCUCGUCGCGGCCCCUGUCAGAUUCUCGUGAAUCUGCGAAUUCUGCUGU [A23U G47C]: the self-cleavage turned out to be 0.999.

Turning to GGGGGCCACAGCAGAAGCGUUCUCGUCGCGACCCCUGUCAGAUUCUGGUGAAUCUGCGAAUUCUGCUGU [A23U G31A], the self-cleavage stood at 0.977. The same measure for GGGGGCCACAGCAGAAGCGUUCUCGUCGCGGCCCCUGUCAGAUUCUGGUGAAUCUGGGAAUUCUGCUGU [A23U C57G]: 0.358; for GGGGGCCACAGCAGAAGCGUUCAAGUCGCGGCCCCUGUCAGAUUCUGGUGAAUCUGAGAAUUCUGCUGU [C24A C57A]: 0.188; for GGGGGCCACAGCAGAAGCGUUCUCGUCGCGGCCCCUAUCAGAUUCUGGUGAAUCUGCGAAUUCUGCUGU [A23U G37A]: 0.384. GGGGGCCACAGCAGAAGCGUUCUCGUCGCGGCCCCUCUCAGAUUCUGGUGAAUCUGCGAAUUCUGCUGU [A23U G37C]: the self-cleavage was found to be 0.149.

As to GGGGGCCACAGCAGAAGCGUUCUCGUCGCGGCCCCUUUCAGAUUCUGGUGAAUCUGCGAAUUCUGCUGU [A23U G37U], the self-cleavage is 0.347. For GGGGGCCACAGCAGAAGCGUUCUCGUCGCGGCCUCUGUCAGAUUCUGGUGAAUCUGCGAAUUCUGCUGU [A23U C34U], the self-cleavage turned out to be 1.01. GGGGGCCACAGCAGAAGCGUUCAAGUCGCGGCCCCUUUCAGAUUCUGGUGAAUCUGCGAAUUCUGCUGU [C24A G37U]: the self-cleavage was determined as 0.231.

With GGGGGCCACAGCAGAAGCGUUCAAGUCGCCGCCCCUGUCAGAUUCUGGUGAAUCUGCGAAUUCUGCUGU [C24A G30C], the self-cleavage is 0.159. GGGGGCCACAGCAGAAGCGUUCUUGUCGCGGCCCCUGUCAGAUUCUGGUGAAUCUGCGAAUUCUGCUGU [A23U C24U]: the self-cleavage was 0.924.

For GGGGGCCACAGCAGAAGCGUUCUGGUCGCGGCCCCUGUCAGAUUCUGGUGAAUCUGCGAAUUCUGCUGU [A23U C24G], the self-cleavage turned out to be 0.556. The result for GGGGGCCACAGCAGAAGCGUUCGCGGCGCGGCCCCUGUCAGAUUCUGGUGAAUCUGCGAAUUCUGCUGU [A23G U26G] reads 0.788. The same measure for GGGGGCCACAGCAGAAGCGUUCGCGCCGCGGCCCCUGUCAGAUUCUGGUGAAUCUGCGAAUUCUGCUGU [A23G U26C]: 1.03; for GGGGGCCACAGCAGAAGCGUUCUCGUCGCGGCCCCUGUCAGAUUCUGGUGAAUCUGCGAAUUCCGCUGU [A23U U64C]: 0.905; for GGGGGCCACAGCAGAAGCGUUCUCGUCGCGGACCCUGUCAGAUUCUGGUGAAUCUGCGAAUUCUGCUGU [A23U C32A]: 0.893.

For GGGGGCCACAGCAGAAGCGUUCUCGUCACGGCCCCUGUCAGAUUCUGGUGAAUCUGCGAAUUCUGCUGU [A23U G28A], the self-cleavage is 0.226.

Turning to GGGGGCCACAGCAGAAGCGUUCAAGUCGCGGCCCCUGUCUGAUUCUGGUGAAUCUGCGAAUUCUGCUGU [C24A A40U], the self-cleavage is 0.383. In the case of GGGGGCCACAGCAGAAGCGUUCAAGUCGCGGCCCCUGUCAGAUUCUGGUGAAUCUGCGAAUUCUACUGU [C24A G65A], the self-cleavage came out at 0.441.

For the variant GGGGGCCACAGCAGAAGCGUUCAAGUCGCGGCCCCUGUCAGAUUCUGGUGAAUCUGCGAAUUCUUCUGU [C24A G65U], the self-cleavage stood at 0.303.

With GGGGGCCACAGCAGAAGCGUUCAAGUCGCGGCCCCUGUCAGAUUCUGGUGAAUCUGCGAAUUCUCCUGU [C24A G65C], the self-cleavage is 0.245. With GGGGGCCACAGCAGAAGCGUUCUCGUCGCGGCCCCUGUCAGAGUCUGGUGAAUCUGCGAAUUCUGCUGU [A23U U43G], the self-cleavage was 0.884. Regarding GGGGGCCACAGCAGAAGCGUUCUCGUCGCGGCCCCUGUCAGAUUCUGGUGAAUCUGCGAACUCUGCUGU [A23U U61C], the self-cleavage worked out at 0.895.

For the variant GGGGGCCACAGCAGAAGCGUUCAAGUCGCGGCCCCUGUCAGAUUCUUGUGAAUCUGCGAAUUCUGCUGU [C24A G47U], the self-cleavage was 0.754. As for GGGGGCCACAGCAGAAGCGUUCAAGUCGCGGCCCCUGUCAGAUUCUCGUGAAUCUGCGAAUUCUGCUGU [C24A G47C], the self-cleavage turned out to be 0.765. As to GGGGGCCACAGCAGAAGCGUUCAAGUCGCGGCCCCUGUCAGAUUCUGGUUAAUCUGCGAAUUCUGCUGU [C24A G50U], the self-cleavage came to 0.722. The same measure for GGGGGCCACAGCAGAAGCGUUCUCGUCGCGGCCCCUGUCAGAUUCUGGUGGAUCUGCGAAUUCUGCUGU [A23U A51G]: 0.954; for GGGGGCCACAGCAGAAGCGUUCAAGUCGCGGCCCCUGUCAGAUUCUGGUGAAUCUGCGCAUUCUGCUGU [C24A A59C]: 0.32; for GGGGGCCACAGCAGAAGCGUUCAAGUCGCGGGCCCUGUCAGAUUCUGGUGAAUCUGCGAAUUCUGCUGU [C24A C32G]: 0.234.

As to GGGGGCCACAGCAGAAGCGUUCAAGUCGCGGCCCCUGUCAGCUUCUGGUGAAUCUGCGAAUUCUGCUGU [C24A A42C], the self-cleavage came to 0.629. The result for GGGGGCCACAGCAGAAGCGUUCAAGUCGCGGCCCCUGUCAGUUUCUGGUGAAUCUGCGAAUUCUGCUGU [C24A A42U] reads 0.66.

Consider GGGGGCCACAGCAGAAGCGUUCAAGUCGCGGCCCCUGUCAGAUUCUGGUGUAUCUGCGAAUUCUGCUGU [C24A A51U], for which the self-cleavage amounted to 0.782.

For the variant GGGGGCCACAGCAGAAGCGUUCAAGUCGCGGCCUCUGUCAGAUUCUGGUGAAUCUGCGAAUUCUGCUGU [C24A C34U], the self-cleavage is 0.803. The same measure for GGGGGCCACAGCAGAAGCGUUCAAGUCGCGGCCCUUGUCAGAUUCUGGUGAAUCUGCGAAUUCUGCUGU [C24A C35U]: 0.476. GGGGGCCACAGCAGAAGCGUUCAAGUCGCGGCCCAUGUCAGAUUCUGGUGAAUCUGCGAAUUCUGCUGU [C24A C35A]: the self-cleavage was determined as 0.185.
